Test results from IntAct's records for PubMed 22274616.

B1: Protein PML (Homo sapiens), P29590 (parent)
chain: MEPAPARSPRPQQDPARPQEPTMPPPETPSEGRQPSPSPSPTERAPASEEEFQFLRCQQCQAEAKCPKLLPCLHTLCSGCLEASGMQCPICQAPWPLGADTPALDNVFFESLQRRLSVYRQIVDAQAVCTRCKESADFWCFECEQLLCAKCFEAHQWFLKHEARPLAELRNQSVREFLDGTRKTNNIFCSNPNHRTPTLTSIYCRGCSKPLCCSCALLDSSHSELKCDISAEIQQRQEELDAMTQALQEQDSAFGAVHAQMHAAVGQLGRARAETEELIRERVRQVVAHVRAQERELLEAVDARYQRDYEEMASRLGRLDAVLQRIRTGSALVQRMKCYASDQEVLDMHGFLRQALCRLRQEEPQSLQAAVRTDGFDEFKVRLQDLSSCITQGKDAAVSKKASPEAASTPRDPIDVDLPEEAERVKAQVQALGLAEAQPMAVVQSVPGAHPVPVYAFSIKGPSYGEDVSNTTTAQKRKCSQTQCPRKVIKMESEEGKEARLARSSPEQPRPSTSKAVSPPHLDGPPSPRSPVIGSEVFLPNSNHVASGAGEAEERVVVISSSEDSDAENSSSRELDDSSSESSDLQLEGPSTLRVLDENLADPQAEDRPLVFFDLKIDNETQKISQLAAVNRESKFRVVIQPEAFFSIYSKAVSLEVGLQHFLSFLSSMRRPILACYKLWGPGLPNFFRALEDINRLWEFQEAISGFLAALPLIRERVPGASSFKLKNLAQTYLARNMSERSAMAAVLAMRDLCRLLEVSPGPQLAQHVYPFSSLQCFASLQPLVQAAVLPRAEARLLALHNVSFMELLSAHRRDRQGGLKKYSRYLSLQTTTLPPAQPAFNLQALGTYFEGLLEGPALARAEGVSTPLAGRGLAERASQQS

Variants of: B1
Conditions: with per2_mouse Per2, O54943
Sequence of per2_mouse Per2, O54943 (O54943 whole entry): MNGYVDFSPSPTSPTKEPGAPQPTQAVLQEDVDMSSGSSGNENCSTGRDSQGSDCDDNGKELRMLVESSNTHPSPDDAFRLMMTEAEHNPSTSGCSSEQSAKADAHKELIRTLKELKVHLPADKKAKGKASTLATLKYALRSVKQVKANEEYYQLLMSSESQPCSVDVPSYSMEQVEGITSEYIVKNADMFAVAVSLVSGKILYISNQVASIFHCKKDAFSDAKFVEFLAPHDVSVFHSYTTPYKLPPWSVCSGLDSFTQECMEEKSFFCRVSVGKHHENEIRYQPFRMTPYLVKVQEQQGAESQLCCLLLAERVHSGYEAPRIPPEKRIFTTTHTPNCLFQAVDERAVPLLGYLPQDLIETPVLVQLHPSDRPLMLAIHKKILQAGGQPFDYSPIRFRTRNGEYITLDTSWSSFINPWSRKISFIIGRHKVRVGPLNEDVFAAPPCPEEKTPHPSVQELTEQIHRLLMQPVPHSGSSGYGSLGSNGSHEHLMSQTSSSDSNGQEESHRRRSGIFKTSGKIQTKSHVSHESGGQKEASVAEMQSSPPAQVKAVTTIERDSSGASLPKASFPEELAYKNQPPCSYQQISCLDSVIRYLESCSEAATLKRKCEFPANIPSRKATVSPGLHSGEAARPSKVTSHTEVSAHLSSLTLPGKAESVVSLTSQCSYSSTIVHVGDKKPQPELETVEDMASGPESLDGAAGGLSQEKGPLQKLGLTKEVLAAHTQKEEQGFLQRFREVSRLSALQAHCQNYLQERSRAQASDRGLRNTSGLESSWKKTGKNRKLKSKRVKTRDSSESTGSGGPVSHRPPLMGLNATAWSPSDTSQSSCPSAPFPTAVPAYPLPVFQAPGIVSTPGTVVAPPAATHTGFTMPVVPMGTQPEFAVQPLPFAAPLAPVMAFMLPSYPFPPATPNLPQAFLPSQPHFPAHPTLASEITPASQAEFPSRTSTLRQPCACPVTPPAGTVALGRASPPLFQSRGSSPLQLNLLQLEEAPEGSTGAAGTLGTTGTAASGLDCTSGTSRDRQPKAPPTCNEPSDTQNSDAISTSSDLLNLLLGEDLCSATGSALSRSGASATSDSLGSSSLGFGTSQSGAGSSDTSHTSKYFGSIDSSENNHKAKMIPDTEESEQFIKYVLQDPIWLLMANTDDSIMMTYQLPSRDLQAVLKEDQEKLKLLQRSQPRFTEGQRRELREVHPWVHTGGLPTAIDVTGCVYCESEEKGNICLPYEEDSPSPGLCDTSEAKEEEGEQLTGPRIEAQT

Row | Variant | effect of a mutation on the interaction
1 | K487R | decreasing interaction strength
